Test: yeast display, Sf9 membrane polyspecificity reagent, FACS + sequencing; frameworks hold sequencing errors
Summary of the method: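 Sorting gates, low and high (top ~1%), were placed on anti-HA fluorescence to track expression and on streptavidin fluorescence to track reagent binding. A clone's polyreactivity label is taken from the gate it came out of. The reagent was 10% biotinylated, detergent-solubilized Sf9 membrane, applied for 1 hour at 4 °C to galactose-induced yeast display cells.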

| Sequence | polyreactivity (PSR sort gate) |
| --- | --- |
| QDQLVESGGGLVQAGGSLRLSCAASGSTFKKYALGWYRQAPGKERELVAAITGSGGRTYYADSVKGRFTISRDNAKNTVYLQMNSLKPEDTAVYYCAARRYLSGGYYYCGQGTQVTVSS | high polyreactivity |
| QDQLVESGGGLVQAGGSLRLSCAASGSTFNAYAMGWYRQAPGKERQLVASITKSGGRTYYADSVKRRFTISRDNAKNTVYLQMNRLKPEDSAVYYCAARYVWRSTHHRGSTYDYWGQGTQVTVSS | high polyreactivity |
| QDQLVESGGGLVQAGGSLRLSCAASGSTFNIYAMGWYRQAHGTVRELVARITSGGSTNYADSVKGRFTISRDNAKNTVYLQMKSLKPEDTAVYYCAARLKWGLPTYDYWGQGTQVTVSS | high polyreactivity |
| QDQLVESGGGLVQAGGSLRLSCAASGSTFPYNVMGWYRQAPGKEREFVAAISSSSGSTYYADSVKGRFTISRDNAKNTVYLQLNSLKPEDTAVYYCARRHPRQRQDGKVDYWGQGTQVTVSS | low polyreactivity |
| QDQLVESGGGLVQAGGSLRLSCAASGSTFRRYTMGWYRQAPGKERELVAVITKSGGSTYYADSVKGRFTISRDNAKNTVYLQMNRLKPEDTAVYYCAAGVAWRFYSWLGHFNGFDYWGQGTQVTVSS | high polyreactivity |
| QDQLVESGGGLVQAGGSLRLSCAASGSTFSYYAMGWYRQAPGKERELVAAITWSDGSTYYADSVKGRFTISRDYAKNTVYLQMNSLKPEDTAVYYCNAEISQLDGVTFKYDYWGQGTQVTVSS | low polyreactivity |
| QDQLVESGGGLVQAGGSLRLSCAASGSTFVKYAMGWYRQAAGTERELVASITKRGGSTYYADSVKGRFTISRDKAKNTVYLQMNSLKPEDTAVYYCNAARGLYNAPKYGSIGFDYWGQGTQVTESS | high polyreactivity |
| QDQLVESGGGLVQAGGSLRLSCAASGSTFWFYAMGWSRQAPGKEWELVAVISNSGSTYYADSVKGRFTISRDNAKNTVYLQLNSLKPEDTAVYYCNTDGGGDSYWYDYWGQGTQVTVSS | low polyreactivity |
| QDQLVESGGGLVQAGGSLRLSCAASGSTISGSAMGWYRQAPGKVRELVATMSRGGSTTYADSVKGRFTISRDNAKNTVYLQMNSLKPEDTAVYYCAAQTYVWWVKYHSGGQGTQVTVSS | low polyreactivity |
| QDQLVESGGGLVQAGGSLRLSCAASGSTIYAYAMGWYRQAPGKERELVARIRWRGGRTYYADSVKGRFTISRDNAKNTVYLRMNSLKPEDTAVYYCAAYKRRSNGRYWTYDYWGQGTQVTVSS | high polyreactivity |
| QDQLVESGGGLVQAGGSLRLSCAASGSTLAYNAKGWYRPAPGKERELVAGIRGSGGSTYYADSVKGRFTISRDNAKNTVYLLMNSLKPEDTAVYDCAAAGYYYYLYAAYYYWGQGTQVTVSS | low polyreactivity |
| QDQLVESGGGLVQAGGSLRLSCAASRNIFYINTMGWYIQAPGKERALVAAIDASDGTTYYADSVKGRFTISRDNAKNTVYLQMNSVKPEDTAVYYCATRRGYDSVYYFYTLWYYYWGQGTQVTVSS | low polyreactivity |
| QDQLVESGGGLVQAGGSLRLSCAASVITFDLYAMGWYRQAPGKERELVAAISISSTSTYYADSVKGLFTISRDNAKNTVYLQMISLKPEDTAGYYCNAVPSSKTFWFDYWGLGTQVTVSS | low polyreactivity |
| QDQLVESGGGLVQAGGSLRLSCAASVSIFGYYAMGWYRQAHGKERELVADITSSGSTYYADSVKGRFTISRDNAKNTVYLQMNSLKPEDTAVYYCAADQYYLGSIDGFEYWGQGTQVTVSS | low polyreactivity |
| QDQLVESGGGLVQAGGSLRLSCAAYGRTFVPYAMGWYRQAPGKEREFVAVITWGGGSTYYADSVKGRFTISRDNAKNTVYLQMNSLKPEDTAVYYCAARNRRATGLGSRYGYWGQGTQVTVSS | high polyreactivity |
| QDQLVESGGGLVQAGGSLRLSCAAYGSIFYVYAMGWYRQAPGKERELVAAIRRTGSSTYYADSVKGRFTISRDNAKNTVSLQMNSLKPEDTAVYYCAASYWRARAGSYDYWGQGTQVTVSS | high polyreactivity |
| QDQLVESGGGLVQAGGSLRLSCADYGNLVYNAKGWSRQAPGKERELVAAISARGGRTYYADSVKGRFTISRDNAKNTVYLQMNSLNPEDTAVYYCAARSYRLDSYYWGQGTQVSVSS | high polyreactivity |

Reference: the nanobody polyreactivity screen of Harvey et al. (2022)
